One data set deals with C=C(OP(=O)(O)O)C(=O)O. The data set is described as follows: purified protein.
For data set [1], the system named is O=C(O)C1=C[C@@H](OP(=O)(O)O)[C@@H](O)[C@H](O)C1. Nature of the data set: purified protein.
The target in data set [2] is 5-enolpyruvylshikimate-3-phosphate synthase (EPSPS) (Mycobacterium tuberculosis, UniProt P9WPY5). Nature of the data set: biochemical.
Data set [3] concerns the target T1, 5-enolpyruvylshikimate-3-phosphate synthase (EPSPS) (Escherichia coli, UniProt P0A6D3).
T1 sequence (P0A6D3 1-427): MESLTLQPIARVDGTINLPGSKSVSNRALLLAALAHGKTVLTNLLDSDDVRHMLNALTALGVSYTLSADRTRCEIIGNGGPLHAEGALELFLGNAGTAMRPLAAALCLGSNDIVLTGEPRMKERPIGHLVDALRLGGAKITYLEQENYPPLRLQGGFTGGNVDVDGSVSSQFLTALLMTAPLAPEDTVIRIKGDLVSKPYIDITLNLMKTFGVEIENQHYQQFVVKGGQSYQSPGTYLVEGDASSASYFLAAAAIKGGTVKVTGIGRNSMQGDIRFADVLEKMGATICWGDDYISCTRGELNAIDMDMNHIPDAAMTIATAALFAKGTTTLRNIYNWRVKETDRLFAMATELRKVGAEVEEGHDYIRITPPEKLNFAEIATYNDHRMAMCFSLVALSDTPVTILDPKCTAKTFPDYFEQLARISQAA
The data set is classed as biochemical.

Substrate in the data set “steady-state kinetics”: C=C(OP(=O)(O)O)C(=O)O
Nature of the data set: steady-state kinetics. The data set is classed as biochemical, Escherichia coli. As to conditions: PEP/glyphosate-binding pocket.

Chain of 5-enolpyruvylshikimate-3-phosphate synthase (EPSPS) (Mycobacterium tuberculosis, UniProt P9WPY5) (P9WPY5 whole entry): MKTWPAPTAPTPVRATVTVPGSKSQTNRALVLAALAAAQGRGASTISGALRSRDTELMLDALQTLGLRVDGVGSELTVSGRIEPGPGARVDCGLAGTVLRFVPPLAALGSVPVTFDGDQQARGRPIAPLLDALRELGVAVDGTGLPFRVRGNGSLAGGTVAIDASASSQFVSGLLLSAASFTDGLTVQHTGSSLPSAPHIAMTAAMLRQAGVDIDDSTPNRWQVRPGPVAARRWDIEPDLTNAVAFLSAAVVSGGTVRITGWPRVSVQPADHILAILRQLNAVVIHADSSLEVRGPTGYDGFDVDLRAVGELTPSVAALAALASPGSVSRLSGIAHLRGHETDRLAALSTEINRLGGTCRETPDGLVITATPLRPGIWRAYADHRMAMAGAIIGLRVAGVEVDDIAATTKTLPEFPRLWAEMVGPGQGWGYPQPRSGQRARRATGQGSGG

As for “5-enolpyruvylshikimate-3-phosphate synthase (EPSPS) (Mycobacterium tuberculosis H37Rv)”, the Km was determined as 104 µM with C=C(OP(=O)(O)O)C(=O)O and 16 µM in data set [1].
On to `O=C(O)CNCP(=O)(O)O` [glyphosate, N-phosphonomethyl-glycine], for which the values for the IC50 in data set [2] and in data set [3] were 260 µM and 3 µM, respectively.

B1: 5-enolpyruvylshikimate-3-phosphate synthase (EPSPS) (Escherichia coli K-12) (protein)
chain: MESLTLQPIARVDGTINLPGSKSVSNRALLLAALAHGKTVLTNLLDSDDVRHMLNALTALGVSYTLSADRTRCEIIGNGGPLHAEGALELFLGNAGTAMRPLAAALCLGSNDIVLTGEPRMKERPIGHLVDALRLGGAKITYLEQENYPPLRLQGGFTGGNVDVDGSVSSQFLTALLMTAPLAPEDTVIRIKGDLVSKPYIDITLNLMKTFGVEIENQHYQQFVVKGGQSYQSPGTYLVEGDASSASYFLAAAAIKGGTVKVTGIGRNSMQGDIRFADVLEKMGATICWGDDYISCTRGELNAIDMDMNHIPDAAMTIATAALFAKGTTTLRNIYNWRVKETDRLFAMATELRKVGAEVEEGHDYIRITPPEKLNFAEIATYNDHRMAMCFSLVALSDTPVTILDPKCTAKTFPDYFEQLARISQAA
In the case of B1, the Km in the data set “steady-state kinetics” amounted to 52 µM.

Source of the values: PMC3572760 (Advances and Applications in Bioinformatics and Chemistry : …, 2013).
